The values that follow come from patent publication US20190233495A1 (Sanofi, published 2019).

The chains are these.
T1: RXFP1 receptor (UniProt Q9HBX9 1-757, limits assumed)
T1 sequence (looked up): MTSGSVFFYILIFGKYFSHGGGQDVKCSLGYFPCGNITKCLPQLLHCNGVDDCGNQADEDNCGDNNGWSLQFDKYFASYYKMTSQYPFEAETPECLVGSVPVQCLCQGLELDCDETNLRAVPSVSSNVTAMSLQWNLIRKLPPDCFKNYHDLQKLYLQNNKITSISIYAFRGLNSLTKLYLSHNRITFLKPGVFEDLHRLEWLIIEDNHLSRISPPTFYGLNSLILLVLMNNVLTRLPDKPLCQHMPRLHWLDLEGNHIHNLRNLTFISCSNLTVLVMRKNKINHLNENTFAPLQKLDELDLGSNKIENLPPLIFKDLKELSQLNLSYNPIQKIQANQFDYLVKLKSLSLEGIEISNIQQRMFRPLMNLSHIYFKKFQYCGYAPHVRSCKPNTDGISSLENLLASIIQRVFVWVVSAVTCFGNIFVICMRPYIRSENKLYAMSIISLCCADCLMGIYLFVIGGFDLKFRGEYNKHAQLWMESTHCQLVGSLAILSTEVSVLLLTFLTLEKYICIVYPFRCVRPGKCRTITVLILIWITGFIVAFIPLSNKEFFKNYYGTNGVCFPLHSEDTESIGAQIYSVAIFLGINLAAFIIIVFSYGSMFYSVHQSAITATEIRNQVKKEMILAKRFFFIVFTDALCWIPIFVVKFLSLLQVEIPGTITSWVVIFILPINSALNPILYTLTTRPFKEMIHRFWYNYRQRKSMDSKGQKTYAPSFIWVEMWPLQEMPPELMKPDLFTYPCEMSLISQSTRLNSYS

B1: SEQ ID NO: 9 (peptide)
peptide: Ac-LEGREKVRAQI[Aib]IEGMSK[1Nal]SKRKK-NH2
SMILES: CC[C@H](C)[C@H](NC(=O)[C@H](CCC(N)=O)NC(=O)[C@H](C)NC(=O)[C@H](CCCNC(=N)N)NC(=O)[C@@H](NC(=O)[C@H](CCCCN)NC(=O)[C@H](CCC(=O)O)NC(=O)[C@H](CCCNC(=N)N)NC(=O)CNC(=O)[C@H](CCC(=O)O)NC(=O)[C@H](CC(C)C)NC(C)=O)C(C)C)C(=O)NC(C)(C)C(=O)N[C@H](C(=O)N[C@@H](CCC(=O)O)C(=O)NCC(=O)N[C@@H](CCSC)C(=O)N[C@@H](CO)C(=O)N[C@@H](CCCCN)C(=O)N[C@@H](Cc1cccc2ccccc12)C(=O)N[C@@H](CO)C(=O)N[C@@H](CCCCN)C(=O)N[C@@H](CCCNC(=N)N)C(=O)N[C@@H](CCCCN)C(=O)N[C@@H](CCCCN)C(N)=O)[C@@H](C)CC
B2: SEQ ID NO: 7 (peptide)
peptide: Ac-LEGREKVR[Aib]QI[Aib]IEGMSKWSKRKK-NH2
SMILES: CC[C@H](C)[C@H](NC(=O)[C@H](CCC(N)=O)NC(=O)C(C)(C)NC(=O)[C@H](CCCNC(=N)N)NC(=O)[C@@H](NC(=O)[C@H](CCCCN)NC(=O)[C@H](CCC(=O)O)NC(=O)[C@H](CCCNC(=N)N)NC(=O)CNC(=O)[C@H](CCC(=O)O)NC(=O)[C@H](CC(C)C)NC(C)=O)C(C)C)C(=O)NC(C)(C)C(=O)N[C@H](C(=O)N[C@@H](CCC(=O)O)C(=O)NCC(=O)N[C@@H](CCSC)C(=O)N[C@@H](CO)C(=O)N[C@@H](CCCCN)C(=O)N[C@@H](Cc1c[nH]c2ccccc12)C(=O)N[C@@H](CO)C(=O)N[C@@H](CCCCN)C(=O)N[C@@H](CCCNC(=N)N)C(=O)N[C@@H](CCCCN)C(=O)N[C@@H](CCCCN)C(N)=O)[C@@H](C)CC
B3: SEQ ID NO: 57 (peptide)
peptide: Ac-LEGREKVRAQI[Aib][Aib]EGQSTFS[Aib]RKK-NH2
SMILES: CC[C@H](C)[C@H](NC(=O)[C@H](CCC(N)=O)NC(=O)[C@H](C)NC(=O)[C@H](CCCNC(=N)N)NC(=O)[C@@H](NC(=O)[C@H](CCCCN)NC(=O)[C@H](CCC(=O)O)NC(=O)[C@H](CCCNC(=N)N)NC(=O)CNC(=O)[C@H](CCC(=O)O)NC(=O)[C@H](CC(C)C)NC(C)=O)C(C)C)C(=O)NC(C)(C)C(=O)NC(C)(C)C(=O)N[C@@H](CCC(=O)O)C(=O)NCC(=O)N[C@@H](CCC(N)=O)C(=O)N[C@@H](CO)C(=O)N[C@H](C(=O)N[C@@H](Cc1ccccc1)C(=O)N[C@@H](CO)C(=O)NC(C)(C)C(=O)N[C@@H](CCCNC(=N)N)C(=O)N[C@@H](CCCCN)C(=O)N[C@@H](CCCCN)C(N)=O)[C@@H](C)O
B4: SEQ ID NO: 56 (peptide)
peptide: Ac-[αMeL]EGREKVRAK(Ac)I[Aib][Aib]EG[Nle]STWS[Aib]RKK(Ac)-NH2
SMILES: CCCC[C@H](NC(=O)CNC(=O)[C@H](CCC(=O)O)NC(=O)C(C)(C)NC(=O)C(C)(C)NC(=O)[C@@H](NC(=O)[C@H](CCCCNC(C)=O)NC(=O)[C@H](C)NC(=O)[C@H](CCCNC(=N)N)NC(=O)[C@@H](NC(=O)[C@H](CCCCN)NC(=O)[C@H](CCC(=O)O)NC(=O)[C@H](CCCNC(=N)N)NC(=O)CNC(=O)[C@H](CCC(=O)O)NC(=O)[C@](C)(CC(C)C)NC(C)=O)C(C)C)[C@@H](C)CC)C(=O)N[C@@H](CO)C(=O)N[C@H](C(=O)N[C@@H](Cc1c[nH]c2ccccc12)C(=O)N[C@@H](CO)C(=O)NC(C)(C)C(=O)N[C@@H](CCCNC(=N)N)C(=O)N[C@@H](CCCCN)C(=O)N[C@@H](CCCCNC(C)=O)C(N)=O)[C@@H](C)O
B5: SEQ ID NO: 11 (peptide)
peptide: Ac-[Aib]EGREKVRAQI[Aib][Aib]EGMSKWSKRKK-NH2
SMILES: CC[C@H](C)[C@H](NC(=O)[C@H](CCC(N)=O)NC(=O)[C@H](C)NC(=O)[C@H](CCCNC(=N)N)NC(=O)[C@@H](NC(=O)[C@H](CCCCN)NC(=O)[C@H](CCC(=O)O)NC(=O)[C@H](CCCNC(=N)N)NC(=O)CNC(=O)[C@H](CCC(=O)O)NC(=O)C(C)(C)NC(C)=O)C(C)C)C(=O)NC(C)(C)C(=O)NC(C)(C)C(=O)N[C@@H](CCC(=O)O)C(=O)NCC(=O)N[C@@H](CCSC)C(=O)N[C@@H](CO)C(=O)N[C@@H](CCCCN)C(=O)N[C@@H](Cc1c[nH]c2ccccc12)C(=O)N[C@@H](CO)C(=O)N[C@@H](CCCCN)C(=O)N[C@@H](CCCNC(=N)N)C(=O)N[C@@H](CCCCN)C(=O)N[C@@H](CCCCN)C(N)=O
B6: SEQ ID NO: 59 (peptide)
peptide: Ac-LEGREKVRAQI[Aib][Aib]EGQST[Phe(4-F)]S[Aib]RKK-NH2
SMILES: CC[C@H](C)[C@H](NC(=O)[C@H](CCC(N)=O)NC(=O)[C@H](C)NC(=O)[C@H](CCCNC(=N)N)NC(=O)[C@@H](NC(=O)[C@H](CCCCN)NC(=O)[C@H](CCC(=O)O)NC(=O)[C@H](CCCNC(=N)N)NC(=O)CNC(=O)[C@H](CCC(=O)O)NC(=O)[C@H](CC(C)C)NC(C)=O)C(C)C)C(=O)NC(C)(C)C(=O)NC(C)(C)C(=O)N[C@@H](CCC(=O)O)C(=O)NCC(=O)N[C@@H](CCC(N)=O)C(=O)N[C@@H](CO)C(=O)N[C@H](C(=O)N[C@@H](Cc1ccc(F)cc1)C(=O)N[C@@H](CO)C(=O)NC(C)(C)C(=O)N[C@@H](CCCNC(=N)N)C(=O)N[C@@H](CCCCN)C(=O)N[C@@H](CCCCN)C(N)=O)[C@@H](C)O
B7: SEQ ID NO: 10 (peptide)
peptide: Ac-LEGREKVRAQI[Aib][Aib]EGMSTWSKRKK-NH2
SMILES: CC[C@H](C)[C@H](NC(=O)[C@H](CCC(N)=O)NC(=O)[C@H](C)NC(=O)[C@H](CCCNC(=N)N)NC(=O)[C@@H](NC(=O)[C@H](CCCCN)NC(=O)[C@H](CCC(=O)O)NC(=O)[C@H](CCCNC(=N)N)NC(=O)CNC(=O)[C@H](CCC(=O)O)NC(=O)[C@H](CC(C)C)NC(C)=O)C(C)C)C(=O)NC(C)(C)C(=O)NC(C)(C)C(=O)N[C@@H](CCC(=O)O)C(=O)NCC(=O)N[C@@H](CCSC)C(=O)N[C@@H](CO)C(=O)N[C@H](C(=O)N[C@@H](Cc1c[nH]c2ccccc12)C(=O)N[C@@H](CO)C(=O)N[C@@H](CCCCN)C(=O)N[C@@H](CCCNC(=N)N)C(=O)N[C@@H](CCCCN)C(=O)N[C@@H](CCCCN)C(N)=O)[C@@H](C)O
B8: SEQ ID NO: 58 (peptide)
peptide: Ac-LEGREKVRAQI[Aib][Aib]EGQSTYS[Aib]RKK-NH2
SMILES: CC[C@H](C)[C@H](NC(=O)[C@H](CCC(N)=O)NC(=O)[C@H](C)NC(=O)[C@H](CCCNC(=N)N)NC(=O)[C@@H](NC(=O)[C@H](CCCCN)NC(=O)[C@H](CCC(=O)O)NC(=O)[C@H](CCCNC(=N)N)NC(=O)CNC(=O)[C@H](CCC(=O)O)NC(=O)[C@H](CC(C)C)NC(C)=O)C(C)C)C(=O)NC(C)(C)C(=O)NC(C)(C)C(=O)N[C@@H](CCC(=O)O)C(=O)NCC(=O)N[C@@H](CCC(N)=O)C(=O)N[C@@H](CO)C(=O)N[C@H](C(=O)N[C@@H](Cc1ccc(O)cc1)C(=O)N[C@@H](CO)C(=O)NC(C)(C)C(=O)N[C@@H](CCCNC(=N)N)C(=O)N[C@@H](CCCCN)C(=O)N[C@@H](CCCCN)C(N)=O)[C@@H](C)O
B9: SEQ ID NO: 8 (peptide)
peptide: Ac-LEGREKVRAQI[Aib]IEG[Nle]SKWSKRKK-NH2
SMILES: CCCC[C@H](NC(=O)CNC(=O)[C@H](CCC(=O)O)NC(=O)[C@@H](NC(=O)C(C)(C)NC(=O)[C@@H](NC(=O)[C@H](CCC(N)=O)NC(=O)[C@H](C)NC(=O)[C@H](CCCNC(=N)N)NC(=O)[C@@H](NC(=O)[C@H](CCCCN)NC(=O)[C@H](CCC(=O)O)NC(=O)[C@H](CCCNC(=N)N)NC(=O)CNC(=O)[C@H](CCC(=O)O)NC(=O)[C@H](CC(C)C)NC(C)=O)C(C)C)[C@@H](C)CC)[C@@H](C)CC)C(=O)N[C@@H](CO)C(=O)N[C@@H](CCCCN)C(=O)N[C@@H](Cc1c[nH]c2ccccc12)C(=O)N[C@@H](CO)C(=O)N[C@@H](CCCCN)C(=O)N[C@@H](CCCNC(=N)N)C(=O)N[C@@H](CCCCN)C(=O)N[C@@H](CCCCN)C(N)=O

Non-standard residues stand in square brackets, D forms with d. Phe(4-F) = N[C@@H](Cc1ccc(F)cc1)C(=O)O; 1Nal = N[C@@H](Cc1cccc2ccccc12)C(=O)O; αMeL = CC(C)C[C@](C)(N)C(=O)O; Nle = CCCC[C@H](N)C(=O)O; Aib = CC(C)(N)C(=O)O

The target in the assay is T1, RXFP1 receptor. The experiment in a line: cell-based or functional assay.
In the case of B1, the “cAMP assay in OVCAR 5 cells EC50” value worked out at 0.0376 µM and the “cAMP assay in OVCAR 5 cells Emax” value came to 100%.

In the case of B2, the “cAMP assay in OVCAR 5 cells EC50” value came out at 0.0566 µM and the “cAMP assay in OVCAR 5 cells Emax” value came out at 101%.

Take B3: the “cAMP assay in OVCAR 5 cells EC50” value came out at 0.0244 µM and the “cAMP assay in OVCAR 5 cells Emax” value worked out at 91%.

As to B4, the “cAMP assay in OVCAR 5 cells EC50” value worked out at 0.0123 µM and the “cAMP assay in OVCAR 5 cells Emax” value is 95%.

Regarding B5, the “cAMP assay in OVCAR 5 cells EC50” value was determined as 0.0448 µM and the “cAMP assay in OVCAR 5 cells Emax” value was 102%.

Turning to B6, the “cAMP assay in OVCAR 5 cells EC50” value is 0.0298 µM and the “cAMP assay in OVCAR 5 cells Emax” value was determined as 86%.

For B7, the “cAMP assay in OVCAR 5 cells EC50” value is 0.0229 µM and the “cAMP assay in OVCAR 5 cells Emax” value is 103%.

Regarding B8, the “cAMP assay in OVCAR 5 cells EC50” value is 0.041 µM and the “cAMP assay in OVCAR 5 cells Emax” value came to 93%.

Consider B9, for which the “cAMP assay in OVCAR 5 cells EC50” value amounted to 0.06 µM and the “cAMP assay in OVCAR 5 cells Emax” value stood at 103%.
